Each block holds one molecule with its values, some of them ahead of it.
Target: Full length LEF-1 (1-399) (human) (UniProt Q9UJU2)
Sequence of UniProt Q9UJU2 (Q9UJU2 whole entry): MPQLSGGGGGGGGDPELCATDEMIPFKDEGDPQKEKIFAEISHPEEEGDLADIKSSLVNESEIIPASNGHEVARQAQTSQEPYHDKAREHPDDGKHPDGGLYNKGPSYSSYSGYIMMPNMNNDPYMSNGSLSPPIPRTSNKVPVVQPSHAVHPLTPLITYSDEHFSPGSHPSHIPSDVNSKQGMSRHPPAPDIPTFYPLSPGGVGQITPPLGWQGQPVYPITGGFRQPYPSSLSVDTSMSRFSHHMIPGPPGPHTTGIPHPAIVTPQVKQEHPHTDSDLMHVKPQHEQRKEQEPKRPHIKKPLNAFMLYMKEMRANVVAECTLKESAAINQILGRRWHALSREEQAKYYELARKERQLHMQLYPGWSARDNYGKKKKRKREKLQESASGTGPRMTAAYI

repression of LEF-1•β-catenin activated TOPFlash luciferase reporter in COS-1 cells, 250 and 500 ng Groucho expression vector: 3 fold
Molecule: GST-Groucho (Drosophila), recovered as a 97 kDa protease-stable fusion protein (from UniProt P16371 1-730) (natural protein)

repression of LEF-1•β-catenin activated TOPFlash luciferase reporter in COS-1 cells: 3 fold
Molecule: human TLE-2 (from UniProt Q04725 1-743) (natural protein)

B1: human Amino-enhancer-of-split (AES) (natural protein)
chain: MMFPQSRHSGSSHLPQQLKFTTSDSCDRIKDEFQLLQAQYHSLKLECDKLASEKSEMQRHYVMYYEMSYGLNIEMHKQAEIVKRLNGICAQVLPYLSQEHQQQVLGAIERAKQVTAPELNSIIRQQLQAHQLSQLQALALPLTPLPVGLQPPSLPAVSAGTGLLSLSALGSQAHLSKEDKNGHDGDTHQEDDGEKSD
repression of LEF-1•β-catenin activated TOPFlash luciferase reporter in COS-1 cells, 250 and 500 ng AES expression vector: 3 fold

From paper PMC2701438
